The values that follow come from patent US20100261872A1, “Factor VIII: remodeling and glycoconjugation of factor VIII” (Neose Technologies, Inc., published 2010).

Test [1] deals with Recombinant human erythropoietin (rhEPO) from the baculovirus/Sf9 expression system (Protein Sciences) (human).
Target sequence in this assay (chain, as listed by the source): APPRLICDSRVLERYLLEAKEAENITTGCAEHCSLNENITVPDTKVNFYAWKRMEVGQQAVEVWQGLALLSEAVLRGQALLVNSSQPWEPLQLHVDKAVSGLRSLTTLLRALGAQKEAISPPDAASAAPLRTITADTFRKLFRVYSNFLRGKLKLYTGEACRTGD
The target in test [2] is Cri-IgG1 monoclonal antibody (non-recombinant, isolated from a human myeloma) (human).
Test [3] deals with Fc Cri-IgG1 (Cri-IgG1 treated with a protease so that only the Fc portion remained) (human).
Test [4] deals with Ribonuclease B (RNaseB) purified from bovine pancreas (Sigma) (bovine) (UniProt P61823).
Chain of Ribonuclease B (RNaseB) purified from bovine pancreas (Sigma) (bovine) (P61823 27-150): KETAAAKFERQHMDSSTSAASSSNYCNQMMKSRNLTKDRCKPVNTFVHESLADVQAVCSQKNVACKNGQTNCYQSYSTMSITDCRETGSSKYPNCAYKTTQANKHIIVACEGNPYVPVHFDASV
The target of test [5] is Recombinant human erythropoietin (rhEPO) from the baculovirus/Sf9 expression system (Protein Sciences) (human). The source holds these as a separate data set.
Test [6] deals with Cri-IgG1 monoclonal antibody (non-recombinant, isolated from a human myeloma) (human). This is another data set of the same source.
Test [7] deals with Fc Cri-IgG1 (Cri-IgG1 treated with a protease so that only the Fc portion remained) (human). This is another data set of the same source.
The target in test [8] is Recombinant human erythropoietin (rhEPO) from the baculovirus/Sf9 expression system (Protein Sciences) (human). The source holds these as a separate data set.
Test [9] has as its target Cri-IgG1 monoclonal antibody (non-recombinant, isolated from a human myeloma) (human). The source holds these as a separate data set.
The target in test [10] is Fc Cri-IgG1 (Cri-IgG1 treated with a protease so that only the Fc portion remained) (human). The source holds these as a separate data set.
The target of test [11] is Ribonuclease B (RNaseB) purified from bovine pancreas (Sigma) (bovine) (UniProt P61823). This is another data set of the same source.
The target of test [12] is asialo-α1 Antitrypsin (PPL) (human).
Chain of asialo-α1 Antitrypsin (PPL) (human) (chain, as listed by the source limits assumed): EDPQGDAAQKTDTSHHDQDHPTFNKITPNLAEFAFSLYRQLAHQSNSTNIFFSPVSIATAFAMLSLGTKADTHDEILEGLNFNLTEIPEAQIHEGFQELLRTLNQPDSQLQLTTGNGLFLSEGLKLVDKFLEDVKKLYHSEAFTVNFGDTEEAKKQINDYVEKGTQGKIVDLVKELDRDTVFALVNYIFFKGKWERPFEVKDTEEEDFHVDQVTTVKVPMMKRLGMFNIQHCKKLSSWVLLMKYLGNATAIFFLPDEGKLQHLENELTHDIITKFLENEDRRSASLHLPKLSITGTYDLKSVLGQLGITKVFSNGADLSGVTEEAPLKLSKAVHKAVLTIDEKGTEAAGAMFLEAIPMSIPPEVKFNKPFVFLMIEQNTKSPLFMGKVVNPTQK
In test [13] the target is ATIII (Antithrombin III) from Genzyme Transgenics (human).
For test [14], the target named is Cri-IgG1 monoclonal antibody (non-recombinant, isolated from a human myeloma) (human). The source holds these as a separate data set.
The target of test [15] is Fc Cri-IgG1 (Cri-IgG1 treated with a protease so that only the Fc portion remained) (human). This is another data set of the same source.
Test [16] deals with Recombinant human erythropoietin (rhEPO) from the baculovirus/Sf9 expression system (Protein Sciences) (human). The source holds these as a separate data set.
Target sequence in this assay (chain, as listed by the source): as the sequence (chain, as listed by the source) above
Test [17] shares this target. This is another data set of the same source.
Target sequence in this assay (chain, as listed by the source): as above

Consider “GalT1 (β1,4 galactosyltransferase 1) (from UniProt P08037) (enzyme)”, for which the released glycans with terminal galactose (HPLC, MALDI) in [1] is 97%. In addition, the relative amount of the G2 glycoform by CE in [2] was 90%; in test [3] it was 84%. The addition of Gal; MALDI-TOF in test [4] stood at 98%.
As for GnT-V (enzyme), the conversion to the tri-antennary glycan (2AA HPLC) in test [5] was determined as 92%.
Take “β-N-acetylhexosaminidase (from Jack Bean, Seikagaku) (enzyme)”: the relative amount of the M3N2F glycoform by CE was determined as 91.4% in test [6] and 100% in test [7].
For “ST6Gal1 (α2,6-sialyltransferase) (enzyme)”, in test [8], the incorporation of radiolabelled sialic acid (% of the radiolabel) turned out to be 5.7.

B1: GnT-III (β1,4-mannosyl-UDP-N-acetylglucosaminosyltransferase III) (enzyme)
chain: HFFKTLSYVTFPRELASLSPNLISSFFWNNAPVTPQASPEPGDPDLLRTPLYSHSPLLQPLSPSKATEELHRVDFVLPEDTTEYFVRTKAGGVCFKPGTRMLEKPSPGRTEEKTEVSEGSSARGPARRPMRHVLSSRERLGSRGTRRKWVECVCLPGWHGPSCGVPTVVQYSNLPTKERLVPREVPRRVINAININHEFDLLDVRFHELGDVVDAFVVCDSNFTAYGEPRPLKFREMLTNGTFEYIRHKVLYVFLDHFPPGGRQDGWIADDYLRTFLTQDGVSRLRNLRPDDVFIIDDADEIPARDGVLFLKLYDGWTEPFAFHMRKSLYGFFWKQPGTLEVVSGCTMDMLQAVYGLDGIRLRRRQYYTMPNFRQYENRTGHILVQWSLGSPLHFAGWHCSWCFTPEGIYFKLVSAQNGDFPRWGDYEDKRDLNYIRSLIRTGGWFDGTQQEYPPADPSEHMYAPKYLLKNYDQFRYLLENPYREPKSTVEGGRQNQGSDGRSSAVRGKLDTAEG
As to B1, the results for the % peak area of the bisecting (NGA2F) glycoform by CE in test [9] and in [10] were 63.6% and 58.4%, respectively.

B2: ST3Gal III (α2,3-sialyltransferase, EC 2.4.99.6) (enzyme)
chain: KLHLLQWEDSNSLILSLDSAGQTLGTEYDRLGFLLKLDSKLPAELATKYANFSEGACKPGYASAMMTAIFPRFSKPAPMFLDDSFRKWARIREFVPPFGIKGQDNLIKAILSVTKEYRLTPALDSLHCRRCIIVGNGGVLANKSLGSRIDDYDIVIRLNSAPVKGFEKDVGSKTTLRITYPEGAMQRPEQYERDSLFVLAGFKWQDFKWLKYIVYKERVSASDGFWKSVATRVPKEPPEIRILNPYFIQEAAFTLIGLPFNNGLMGRGNIPTLGSVAVTMALDGCDEVAVAGFGYDMNTPNAPLHYYETVRMAAIKESWTHNIQREKEFLRKLVKARVITDLSSGI
Molecule B2 yielded an addition of sialic acid; MALDI-TOF in test [11] of 90%. Besides, the % Rxn (completion of sialylation by 14C-NeuAc incorporated, against terminal Gal content) in test [12] came out at 100%; with Asialo-fetuin (Sigma) it was 116%; in [13], 117%. Also, the relative amount of the S2G2 glycoform by HPLC (peak at 49.4 min) in test [14] turned out to be 58.9%; in [15] it was 61.9%. In addition, the incorporation of radiolabelled sialic acid in [8] was 10.9 moles/mole.

B3: GnT-I (β1,2-mannosyl-UDP-N-acetylglucosaminosyltransferase I) (enzyme)
chain: TRPAPGRPPSVSALDGDPASLTREVIRLAQDAEVELERQRGLLQQIGDALSSQRGRVPTAAPPAQPRVPVTPAPAVIPILVIACDRSTVRRCLDKLLHYRPSAELFPIIVSQDCGHEETAQAIASYGSAVTHIRQPDLSSIAVPPDHRKFQGYYKIARHYRWALGQVFRQFRFPAAVVVEDDLEVAPDFFEYFRATYPLLKADPSLWCVSAWNDNGKEQMVDASRPELLYRTDFFPGLGWLLLAELWAELEPKWPKAFWDDWMRRPEQRQGRACIRPEISRTMTFGRKGVSHGQFFDQHLKFIKLNQQFVHFTQLDLSYLQREAYDRDFLARVYGAPQLQVEKVRTNDRKELGEVRVQYTGRDSFKAFAKALGVMDDLKSGVPRAGYRGIVTFQFRGRRVHLAPPLTWEGYDPSWN
Turning to B3, the conversion of the tri-mannosyl glycoform to 'tri-mannosyl core+2 GlcNAc' (2-AA HPLC) in test [16] is 100%.

B4: GnT-II (β1,2-mannosyl-UDP-N-acetylglucosaminosyltransferase II) (enzyme)
chain: RQRKNEALAPPLLDAEPARGAGGRGGDHPSVAVGIRRVSNVSAASLVPAVPQPEADNLTLRYRSLVYQLNFDQTLRNVDKAGTWAPRELVLVVQVHNRPEYLRLLLDSLRKAQGIDNVLVIFSHDFWSTEINQLIAGVNFCPVLQVFFPFSIQLYPNEFPGSDPRDCPRDLPKNAALKLGCINAEYPDSFGHYREAKFSQTKHHWWWKLHFVWERVKILRDYAGLILFLEEDHYLAPDFYHVFKKMWKLKQQECPECDVLSLGTYSASRSFYGMADKVDVKTWKSTEHNMGLALTRNAYQKLIECTDTFCTYDDYNWDWTLQYLTVSCLPKFWKVLVPQIPRIFHAGDCGMHHKKTCRPSTQSAQIESLLNNNKQYMFPETLTISEKFTVVAISPPRKNGGWGDIRDHELCKSYRRLQ
As to B4, the % peak area of the bisecting (NGA2F) glycoform by CE in test [9] stood at 63.6%; in [10] it was 58.4%. Moreover, the completion of the bi-antennary GlcNAc glycan (HPLC, MALDI) in test [17] is over 99%.
